From patent US5700777A, “Fatty acid - pulmonary surfactant conjugates” (Abbott Laboratories, priority 1995, dated 1997)

Key:
Assay type in all cases: physicochemical
[1] = Modified Wilhelmy surface balance (Langmuir trough): dynamic surface tension versus compressed surface area; settings: for Surface activity of admixtures, in words: data of Tables 2 and 3 (Wilhelmy balance, King-Clements, pulsating bubble); for Wilhelmy-Langmuir Trough Equilibrum (equilibrium adsorption value): after a three (3) minute spreading time, total peptide 0.5 mg/ml; for Wilhelmy-Langmuir Trough Equilibrum (equilibrium adsorption value) / Wilhelmy-Langmuir Trough Max (maximum dynamic surface tension) / Wilhelmy-Langmuir Trough Min (minimum dynamic surface tension): 37° C.; for Wilhelmy-Langmuir Trough Max (maximum dynamic surface tension) / Wilhelmy-Langmuir Trough Min (minimum dynamic surface tension): peptide/lipid admixture, total peptide 0.5 mg/ml (two peptides: 0.25 mg/ml each), 675 μg phospholipid, seven compression-expansion cycles, average of 3 runs
Description: The dynamic surface tension lowering properties of the peptide/lipid admixtures were studied using a modified Wilhelmy Surface Balance (Langmuir Trough). The instrument consists of an all Teflon trough and movable Teflon ribbon (dam) barrier system which completely contains and defines a variable surface area. Surface area was varied through the use of a constant rate reversible 3-phase motor to drive the Teflon barrier. A Cahn 2000 electrobalance (Cahn Instruments, Cerittos, CA) with a sandblasted 1 cm platinum plate and stainless steel hangdown wire was employed to determine the surface tension at the liquid-air interface. The entire apparatus was situated in a thermostated incubator set at 45° C. Surface area-surface tension measurements were made by adding 950 ml of 0.15M NaCl to the trough. Subphase temperature was controlled during the measurements at 36°-38° C.
For each experiment 27 ul of peptide/lipid admixture was applied in a random array of 13 (.congruent.2 ul) droplets to the surface of the temperature controlled subphase and allowed to spread spontaneously for 3 minutes. (The 27 ul application corresponds to 675 ug of phospholipid). The trough surface area was then cycled from a maximum (445 sq. cm) to a minimum (178 sq. cm) surface area and back to maximum at a cycling rate of 3 cycles/min (compression ratio 2.5:1). The dynamic surface tension vs surface area was recorded for 7 complete compression-expansion cycles for each application.

[2] = Adsorption rate, King-Clements system (Wilhelmy balance with stirred round Teflon dish); settings: 10 ml of diluted sample (1:50) added under constant agitation to 70 ml saline subphase; 37° C.
Protocol: A procedure similar to that described by Notter, et al., Pediatric Res. 16, 515-519, (1982) was employed to determine the absorption rate in the absence of diffusion resistance. The modified Wilhelmy surface balance as described above was used. However, instead of using a Langmuir trough a round Teflon dish (5.1 cm diameter) was employed. The subphase, 70 ml of 0.15M NaCl, was allowed to equilibrate to 37° C. in the incubator and was continuously stirred with a Teflon coated magnetic stirer. An aliquot of the peptide/lipid admixture containing 5 mg of total phospholipid was dispersed in 10 ml of 0.15M NaCl by vortexing for 10 seconds. This dispersion was then added to the saline subphase. Surface tension lowering was monitored using a strip chart recorder connected to the electrobalance output and data collected for 20 minutes.

[3] = Pulsating bubble surfactometer (PBS) surface tension; settings: after 100 cycles (5 minutes, 20 cycles/minute); phospholipid 1 mg/ml; 37° C.; diluent […] NaCl; mean of triplicate
Protocol: The PBS equipment (Electronetics, Buffalo, N.Y.) used was essentially equivalent to that described in detail by G. Enhorning, J. Appld. Physiol. 43, 198-203, (1977). Recordings were made of the pressure gradient across the wall of a small air bubble, communicating with ambient air by means of a narrow chimney stack, but otherwise entirely surrounded by a 40 ul volume of the peptide/lipid admixture. The admixture concentration employed for these studies was 1 mg/ml total phospholipid (0.02 mg/ml total peptide) and the diluent was 0.15M NaCl. Immediately prior to loading the sample chamber, the diluted samples were sonicated for 15 seconds to remove any gas nuclei.
The pressure drop across the air-water interface was measured during pulsation by a pressure transducer, and the corresponding surface tension determined through the application of Young's law and the Laplace equation. Measurements were all made at 37° C. and the bubble pulsed at 20 cycles/minute to render respectively a maximum (1.1 mm) and a minimum (0.8 mm) bubble diameter. (This compression/expansion corresponds to a 50% change the surface area of the air-water interface).

| Molecule | Surface activity of admixtures, in words [1] | Wilhelmy-Langmuir Trough Equilibrum (equilibrium adsorption value) [1] [dynes/cm] | Wilhelmy-Langmuir Trough Max (maximum dynamic surface tension) [1] [dynes/cm] | Wilhelmy-Langmuir Trough Min (minimum dynamic surface tension) [1] [dynes/cm] | King-Clements Adsorption (adsorption surface tension) [2] [dynes/cm] | Surface Tension Values Maximum (pulsating bubble apparatus) [3] [dynes/cm] | Surface Tension Values Minimum (pulsating bubble apparatus) [3] [dynes/cm] |
| --- | --- | --- | --- | --- | --- | --- | --- |
| C-14 (Myristic acid)-SP-C (FGIPCCPVHLKRLLIVVVVVVLIVVVIVGALLMG; Pulmonary surfactant-associated protein C N-terminal myristic acid; UniProt P11686 24-57, looked up, fragment) [C14 -SPC(1-34), myristic acid (C14) covalently attached to the N-terminal end of synthetic human SP-C(1-34)] | unusual surface activity | – | – | – | – | – | – |
| C-16 (Palmitic acid)-SP-C (FGIPCCPVHLKRLLIVVVVVVLIVVVIVGALLMG; Pulmonary surfactant-associated protein C N-terminal palmitic acid; UniProt P11686 24-57, looked up, fragment) [C16 -SPC(1-34)] | unusual surface activity | – | – | – | – | – | – |
| SPB(53-78): synthetic C-terminal SP-B fragment, sequence based on natural SP-B (YSVILLDTLLGRMLPQLVCRLVLRCS; Pulmonary surfactant-associated protein B; UniProt P07988 253-278, looked up, fragment) [reference compound] | – | 40.0 | 49.3 | 0.1 | 45.0 | 55.5 | 4.9 |
| SPB(1-78): synthetic full length SP-B peptide, sequence based on natural SP-B (peptide, UniProt P07988 201-279, looked up, Pulmonary surfactant-associated protein B) Pulmonary …: FPIPLPYCWLCRALIKRIQAMIPKGALAVAVAQVCRVVPLVAGGICQCLAERYSVILLDTLLGRMLPQLVCRLVLRCSM | – | 38.0 | 45.0 | 0.0 | 30.0 | 49.0 | 4.2 |
